Assay results published in publication PMC12099056, “Targeting the Exonic Circular OGT RNA/O-GlcNAc Transferase/Forkhead Box C1 Axis Inhibits Asparagine- and Alanine-Mediated Ferroptosis Repression in Neuroblastoma Progression” (Research, 2025).

Assays:
[1] = Western blot of FOXC1 level; conditions: glycan lost; control: mock, sh-Scb or untreated
[2] = CHX chase Western blot (protein stability); conditions: glycan lost; control: untreated
[3] = dual-luciferase FOXC1 reporter, SH-SY5Y; conditions: glycan lost; control: wild-type Flag-FOXC1
[4] = CHX chase Western blot (protein stability), SH-SY5Y; conditions: glycan lost; control: sh-Scb
[5] = target: T1, recombinant GST-tagged OGT (wild-type) (human, UniProt O15294 1-1046); assay: co-IP; recombinant GST-tagged OGT and MBP-tagged FOXC1 proteins (wild-type or truncations), co-IP and Western blot; conditions: both partners purified
T1 construct: O-GlcNAc transferase (OGT), human cDNA (printed as 3,131 bp) from Genechem; wild-type construct as against truncations
T1 sequence (looked up): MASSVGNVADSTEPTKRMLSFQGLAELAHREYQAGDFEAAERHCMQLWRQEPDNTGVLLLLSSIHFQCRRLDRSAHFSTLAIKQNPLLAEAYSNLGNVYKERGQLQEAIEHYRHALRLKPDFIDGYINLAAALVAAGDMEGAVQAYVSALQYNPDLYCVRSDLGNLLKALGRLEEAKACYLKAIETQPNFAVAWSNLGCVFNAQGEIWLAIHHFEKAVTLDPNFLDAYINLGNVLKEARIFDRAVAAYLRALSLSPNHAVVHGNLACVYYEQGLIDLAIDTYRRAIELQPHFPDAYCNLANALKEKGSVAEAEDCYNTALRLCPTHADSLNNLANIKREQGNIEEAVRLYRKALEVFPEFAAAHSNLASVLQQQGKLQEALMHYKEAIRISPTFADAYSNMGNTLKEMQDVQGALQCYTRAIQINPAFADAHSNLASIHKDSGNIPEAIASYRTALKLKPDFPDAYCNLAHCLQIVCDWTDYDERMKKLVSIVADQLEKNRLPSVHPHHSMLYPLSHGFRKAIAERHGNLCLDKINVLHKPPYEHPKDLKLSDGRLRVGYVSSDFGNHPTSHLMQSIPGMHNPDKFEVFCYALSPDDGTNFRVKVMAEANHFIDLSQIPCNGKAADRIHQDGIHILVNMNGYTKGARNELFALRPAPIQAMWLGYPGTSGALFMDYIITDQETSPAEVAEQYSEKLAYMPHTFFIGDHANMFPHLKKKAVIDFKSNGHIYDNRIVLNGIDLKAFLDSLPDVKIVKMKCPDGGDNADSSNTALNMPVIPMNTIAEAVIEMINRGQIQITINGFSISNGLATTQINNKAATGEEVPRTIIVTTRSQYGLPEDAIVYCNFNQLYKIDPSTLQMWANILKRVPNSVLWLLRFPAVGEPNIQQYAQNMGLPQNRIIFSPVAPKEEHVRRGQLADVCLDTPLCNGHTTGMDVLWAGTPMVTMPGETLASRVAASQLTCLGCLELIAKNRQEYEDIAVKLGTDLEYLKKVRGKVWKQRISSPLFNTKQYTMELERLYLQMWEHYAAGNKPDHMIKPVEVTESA

B1: forkhead box C1 (FOXC1): sh-OGT (protein)
parent chain: MQARYSVSSPNSLGVVPYLGGEQSYYRAAAAAAGGGYTAMPAPMSVYSHPAHAEQYPGGMARAYGPYTPQPQPKDMVKPPYSYIALITMAIQNAPDKKITLNGIYQFIMDRFPFYRDNKQGWQNSIRHNLSLNECFVKVPRDDKKPGKGSYWTLDPDSYNMFENGSFLRRRRRFKKKDAVKDKEEKDRLHLKEPPPPGRQPPPAPPEQADGNAPGPQPPPVRIQDIKTENGTCPSPPQPLSPAAALGSGSAAAVPKIESPDSSSSSLSSGSSPPGSLPSARPLSLDGADSAPPPPAPSAPPPHHSQGFSVDNIMTSLRGSPQSAAAELSSGLLASAAASSRAGIAPPLALGAYSPGQSSLYSSPCSQTSSAGSSGGGGGGAGAAGGAGGAGTYHCNLQAMSLYAAGERGGHLQGAPGGAGGSAVDDPLPDYSLPPVTSSSSSSLSHGGGGGGGGGGQEAGHHPAAHQGRLTSWYLNQAGGDLGHLASAAAAAAAAGYPGQQQNFHSVREMFESQRIGLNNSPVNGNSSCQMAFPSSQSLYRTSGAFVYDCSKF
- expression_or_secretion [1]: decreases

B2: forkhead box C1 (FOXC1): OSMI-1 (protein)
parent chain: B1 parent chain
- degradation_or_half_life [2]: decreases
- expression_or_secretion [1]: decreases

B3: forkhead box C1 (FOXC1): S8A (protein)
parent chain: B1 parent chain
- other: transcriptional activity [3]: decreases

B4: forkhead box C1 (FOXC1): sh-OGT #1 (protein)
parent chain: B1 parent chain
- degradation_or_half_life [4]: decreases

B5: recombinant MBP-tagged FOXC1 (wild-type) (natural protein, human, UniProt Q12948 1-553, looked up)
chain: B1 parent chain
notes: forkhead box C1 (FOXC1), human cDNA (1,662 bp) from Genechem; wild-type construct as against truncations; the printed AD1 domain is residues 1 to 68; a cDNA of 1,662 bp fits 553 codons and a stop codon
- binding result [5]: binds
